Experimental data taken from patent US20080213270.

Test system: Neurotensin (1-13)

neurolysin (NLN), mouse mast cell-associated
NT degradation by A23187-activated BMCMCs transduced with shRNA (percentage of NT remaining): mMC-CPA- or NL-shRNA-transduced BMCMCs also exhibited significantly reduced ability to degrade NT after activation with A23187 (5 uM)
NT degradation by membrane or cytosol preparations of mouse BMCMCs (percentage of NT remaining): either membrane or cytosol preparations of mouse BMCMCs degraded NT, an ability that was almost completely inhibited by the NLN inhibitor, Pro-Ile (10 mM)
